Where a chain is given by its changes, count along the chain named. In names and notes the source's numbering stands.
T1: CD27 expressed on the cell surface (HT1080_CD27 cells) (human, UniProt P26842 20-260)
T1 sequence (looked up): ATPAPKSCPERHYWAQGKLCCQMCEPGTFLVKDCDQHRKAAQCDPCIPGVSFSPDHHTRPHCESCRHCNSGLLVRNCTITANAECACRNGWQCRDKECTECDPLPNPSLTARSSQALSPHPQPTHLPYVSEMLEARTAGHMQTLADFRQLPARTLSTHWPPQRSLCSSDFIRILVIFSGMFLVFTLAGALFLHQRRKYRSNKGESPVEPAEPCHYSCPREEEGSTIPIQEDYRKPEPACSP

T2: CD27 protein (His-tagged, Sino Biological Inc. 10039-H08B1) (human, UniProt P26842 20-192)
T2 construct: bought; coated onto ELISA plates; also called human CD27; recombinant protein; not shown: His tag
T2 sequence (looked up): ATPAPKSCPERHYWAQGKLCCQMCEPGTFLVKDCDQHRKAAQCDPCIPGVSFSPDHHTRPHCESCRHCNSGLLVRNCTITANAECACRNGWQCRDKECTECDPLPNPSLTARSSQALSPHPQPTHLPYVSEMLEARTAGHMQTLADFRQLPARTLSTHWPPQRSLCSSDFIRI

B1: P018.S.02.A.A06 (antibody, V domains shown)
VH: QSVEESGGRLVKPDESLTLTCTVSGIDLSTYAMGWVRQAPGKGLEYIGMISTGGSAYYASWAQGRFTISRTSTTVDLKMTSLTTEDTATYFCARLRDPYSYRTYFNLWGPGTLVTVSS
VL: ALVMTQTPSSVEAAVGGTVTIKCQASLSISSALAWYQQKPGQRPKLLIYDASNLESGVPSRFKGSGSGAHFTLTVSDLESADAATYYCQGPYDTVNNNSFGGGTEVVVK
notes: V regions on human Ig constant parts; also called AB27_28
B2: P018.S.06.A.C06 (antibody, V domains shown)
VH: QQQLEESGGGLVKPGGTLTLPCKASGFTISSDYDMCWVRQAPGKGLEWITCILGGSGGSTWYANWAKGRFTISQSSSTTVTLQMTSLTDADTATYFCTRASGFTYFELWGPGTLVTVSS
VL: AQVLTQTPSSVSAAVGGTVTINCQASQSVYNNKNLAWYQQKPGQPPKLLIYYASTLASGVSSRFKGSGSGTQFTLTISDVQSDDAATYYCQGEFSCSSSDCFAFGGGTEVVVK
notes: V regions on human Ig constant parts; also called AB27_102
B3: P018.S.07.A.A05 (antibody, V domains shown)
VH: QEHLEESGGDLVKPGASLTLTCKASGFDLSINVMCWVRQAPGKGPEWIVCIDNGDGSTYYASWVNGRFTISKTSSTTVTLQMTSLTAADTATYFCARPGTFTYGGNTYPGSFVLWGPGTLVTVSS
VL: AFELTQTPSSVEAAVGGTVTINCQASQSISNALAWYQQKPGQPPKLLIYTASNLASGVPSRFKGSGSGTQFTLTISDLESADAATYYCQNYYVNIIGIGFGGGTEVVVK
notes: V regions on human Ig constant parts; also called AB27_114
B4: P018.S.01.A.E06 (antibody, V domains shown)
VH: QSLEESGGDLVKPGASLTLTCTASGIDFSSSYYMCWVRQAPGKGLEWIGCIATGGGNTYYATWAKGRFTFSETSSTTVTLQMTSLTVADTATYFCARTYPSMWYFNLWGPGTLVTVSS
VL: DVVMTQTPASVSEPVGGTVTIKCQASQSIGFNLAWYQQKPGQPPNLLIYGVSTLTSGVSSRFKGSGSGTQFTLTISDLESADAATYYCQSFYAGSSAFGGGTEVVVK
notes: V regions on human Ig constant parts; also called AB27_18
B5: P018.S.10.A.A04 (antibody, V domains shown)
VH: QSVEESGGRLVTPGTPLTLTCTVSGIDLSSNVMTWVRQAPGKGLEWIGYIYASATTYYATWAKGRFTISKTSTTVDLKMTSPTTEDTATYFCARERLASRGDYSDLWGQGTLVTVSS
VL: AYDMTQTPASVEAAVGGTVTIKCQASESIGDLLAWYQQKPGQPPKLLIYDASDLASGVPSRFKGSGSGTEFTLTISGVESADAATYYCQQGYTTTSNVDNIFGGGTEVVVK
notes: V regions on human Ig constant parts; also called AB27_164
B6: P018.S.03.A.F02 (antibody, V domains shown)
VH: QSVEESGGRLVTPGTPLTLTCTVSGFSLSSNAMTWVRQAPGKGLEWIGFINTGGSTYYASWAKGRFTISKTSTTVDLKITSPTTEDTATYFCARDVGDSRGYYWGLWGQGTLVTVSS
VL: B5 VL with E12P, S28D, G30Y, D31S, K63R, E70D, F71Y, T95Y, S96T, N97T
notes: V regions on human Ig constant parts; also called AB27_53
B7: P018.S.04.A.D04 (antibody, V domains shown)
VH: B6 VH with F26I, S27D, N31Y, A32S, S55R, T56G, V96A, D98S, W104R, G105D
VL: B5 VL with E12S, S28D, G30Y, D31S, K63S, E70D, F71Y, T95S, S96T, N97T
notes: V regions on human Ig constant parts; also called AB27_72
B8: P018.S.06.A.A03 (antibody, V domains shown)
VH: B6 VH with G54S, V96A, G97D
VL: B5 VL with E12P, S28D, G30Y, D31S, K63R, E70D, F71Y, T95Y, S96T, N97T
notes: V regions on human Ig constant parts; also called AB27_96
B9: P018.S.04.A.B05 (antibody, V domains shown)
VH: QSVEESGGRLVTPGTPLTLTCTASGFTLSSFYMSWVRQAPGKGLEWIGFIHGHGNTYYASWAKGRFTISKTSTTVDLKIASPTTEDTATYFCARGGHPNMDLWGQGTLVTISS
VL: DIVMTQTPSSVEAAVGGTVTIKCQASQNINNYLAWYQQKPGQPPKLLIYYASTLASGVSSRFKGSGSGTEFTLTISDLESDDAATYYCQCSYYDASIFGAFGGGTEVVVR
notes: V regions on human Ig constant parts; also called AB27_68
B10: P018.S.07.A.H02 (antibody, V domains shown)
VH: QEQLVESGGGLVQPEGSLTLTCKASGFDFSSDAMCWVRQAPGKGLEWIACIYVGSVGSSWYASWAKGRFTISKSSSTTVTLQVTSLTAADTATYFCARGENIAYFTFWGPGTLVTVSS
VL: DIMMTQTPASVSAAVGGTVTIKCQASQSINSWLSWYQQKPGQPPKLLIYKASTLASGVPSRFEGSGSGTEFTLTISDLESADAATYYCQGYYYYSSSNFASNAFGGGTEVVVK
notes: V regions on human Ig constant parts; also called AB27_131
B11: P018.S.03.A.A02 (antibody, V domains shown)
VH: QSVEESGGRLVTPGTPLTLTCTVSGFSLSSYDMTWVRQAPGEGLEWIGYINTDTTTYYASWAKGRFTISRTSTTVDLEITSPTTEDTATYFCARGNDPIYIDLWGQGTLVTVSS
VL: AAVLTQTPSPVSAAVGGTVSISCQSSKSVINNNWLGWYQQKPGQPPKLLISYASTLASGVPSRFSGSGSGTQFTLTISDVQSDDAATYYCAGAYSPDSENAFGGGTEVVLK
notes: V regions on human Ig constant parts; also called AB27_41
B12: P018.S.04.A.G04 (antibody, V domains shown)
VH: QSLEESGGRLVTPGTPLTLTCTASGFTISSHHVTWVRQAPGEGLEWIGVIYPSGTTYYASWAKGRFTISRTSTTVDLKMTSLTIEDTATYFCVRDVGYFTLWGQGTLVTVSS
VL: AQVLTQTPSPVSAAVGGTVTISCQSSQSVGGNNWLAWYQQKLGQPPKLLIYYASTLASGVPPRFSGSGSGTQFTLTISEVQSDDSATYYCQGYYSDVTNAFGGGTEVVVK
notes: V regions on human Ig constant parts; also called AB27_78
B13: P018.S.09.A.C06 (antibody, V domains shown)
VH: QSVEESGGRLVTPGTPLTLTCTVSGFSLSTYAMGWVRQAPGKGLEWIGIIYTGGSTYYASWAEGRFTISKTSTTVDLKITSPTPEDTATYFCTRDLGATYDYFDLWGQGTLVTVSS
VL: AYDMTQTPASVEVAVGGTVTIKCQASQSISTALAWYQQKPGQRPKLLIYDTSDLASGVPSRFSGSGSGTEFTLTISGVESADAATYYCQQGYRHTNVDNPFGGGTGVVVK
notes: V regions on human Ig constant parts; also called AB27_149
B14: P018.S.01.A.G03 (antibody, V domains shown)
VH: QSVEESGGRLVTPGTPLTLTCTVSGFSLSSYSMIWVRQAPGKGLEWIGIVYASGSTNYASWAKGRFTISKTSTTVDLKITSPTTEDTATYFCARGDVLYAFDPWGPGTLVTVSS
VL: AFELTQTPSSVSAAVGGTVTIKCQASENIYSYLAWYQQKPGQPPKRLIYYASNLASGVSSRFKGSGSGTEFTLTISDLESADAATYYCQYTYSTSPGYIFGGGTEVVVK
notes: V regions on human Ig constant parts; also called AB27_22
B15: P018.S.07.A.C04 (antibody, V domains shown)
VH: QEQLVESGGGLVQPEGSLTLTCTASGFSFSSRFWICWVRQAPGKGLEWIACIYGGSTSATYDASWAKGRFTISKTSSTTVTLQMTSLTAADTATYFCTRLPTYDAYVFNLWGPGTLVTVSS
VL: AIVMTQTPSSKSVPVGATATINCQASESVFSNNYLSWYQQKPGRSPKLLIYEASKLASGVPSRFSGSGSGTQFTLTISDVVSDDAATYYCGGYKSNNVDGYAFGGGTEVVVK
notes: V regions on human Ig constant parts; also called AB27_120

Legend:
[1] = target: T1, CD27 expressed on the cell surface …; assay: cell-based or functional assay
[2] = target: T2, CD27 protein (His-tagged, Sino …); assay: ELISA on coated His-tagged CD27
[3] = target: T1, CD27 expressed on the cell surface …; assay: cellular binding assay, HT1080_CD27 cells
Further: test concentration or dose not given here.

Row | Binder | IL-8, cross-linked by F(ab')2 fragment [abs. corr.] [1] | IL-8 [abs. corr.] [1] | ELISA [abs. corr.] [2] | Cellular binding assay [RFU] [3]
1 | B1 | 1.48 abs. corr. | 0.299 abs. corr. | 3.13 abs. corr. | 293 RFU
2 | B2 | 1.08 abs. corr. | 0.128 abs. corr. | 3.13 abs. corr. | 379 RFU
3 | B3 | 1.03 abs. corr. | 0.408 abs. corr. | 3.44 abs. corr. | 379 RFU
4 | B4 | 1.4 abs. corr. | 0.448 abs. corr. | 3.45 abs. corr. | 291 RFU
5 | B5 | 2.16 abs. corr. | 1.78 abs. corr. | 3.13 abs. corr. | 175 RFU
6 | B6 | 1.22 abs. corr. | 0.736 abs. corr. | 3.46 abs. corr. | 276 RFU
7 | B7 | 1.32 abs. corr. | 0.486 abs. corr. | 3.7 abs. corr. | 365 RFU
8 | B8 | 1.86 abs. corr. | 0.576 abs. corr. | 3.41 abs. corr. | 387 RFU
9 | B9 | 1.08 abs. corr. | 0.308 abs. corr. | 3.5 abs. corr. | 414 RFU
10 | B10 | 1.22 abs. corr. | 0.107 abs. corr. | 3.47 abs. corr. | 283 RFU
11 | B11 | 2.2 abs. corr. | 0.651 abs. corr. | 3.44 abs. corr. | 373 RFU
12 | B12 | 1.57 abs. corr. | 0.451 abs. corr. | 3.48 abs. corr. | 335 RFU
13 | B13 | 2.3 abs. corr. | 1.94 abs. corr. | 3.45 abs. corr. | 219 RFU
14 | B14 | 1.21 abs. corr. | -0.105 abs. corr. | 3.5 abs. corr. | 358 RFU
15 | B15 | 1.65 abs. corr. | 0.302 abs. corr. | 3.45 abs. corr. | 300 RFU
